Data published in patent US20080072349A1 (PIONEER HI BRED INTERNATIONAL, published 2008).
Where a chain is given by its changes, count along the chain named.

B1: Rubisco Activase derived polypeptide 183H12 (enzyme)
chain: MVKEDKQTDGDRWRGLAYDTSDDQQDITRGKGMVDSVFQAPMGTGTHHAVLSSYEYVSQGLRQYNLDNMMDGFYIAPAFMDKLVVHITKNFLTLPNIKVPLILGIWGGKGQGKSFQCELVMAKMGINPIMMSAGELESGNAGEPAKLIRQRYREAADLIKKGKMCCLFINDLDAGAGRMGGTTQYTVNNQMVNATLMNIADNPTNVQLPGMYNKEENARVPIICTGNDFSTLYAPLIRDGRMEKFYWAPTREDRIGVCKGIFRTDKIKDEDIVRLVDQFPGQSIDFFGALRARVYDDEVRKFVESLGVEKIGKRLVNSREGPPVFEQPEMTYEKLMEYGNMLVMEQENVKRVQLAETYLSQAALGDANADAIGRGTFYGKTEEKEPSKLE
B2: Rubisco Activase derived polypeptide 382D8 (enzyme)
chain: B1 chain with M131V, V257I, R274T, K310N
B3: Rubisco Activase derived polypeptide 383A12 (enzyme)
chain: B1 chain with F168L, V257I, K310N
B4: Rubisco Activase derived polypeptide 182B11 (enzyme)
chain: B1 chain with M131I, R274T
B5: Rubisco Activase derived polypeptide 079H6 (enzyme)
chain: B1 chain with M42T, M131I, R274T, R293K
B6: Rubisco Activase derived polypeptide 301H3 (enzyme)
chain: B1 chain with V257I, K310N
B7: wild type Rubisco Activase (Arabidopsis, short form RCA1) (enzyme)
chain: B1 chain with R274T
B8: Rubisco Activase derived polypeptide 214A4 (enzyme)
chain: B1 chain with M42T
B9: Rubisco Activase derived polypeptide 126H4 (enzyme)
chain: B1 chain with M130R, R274T
B10: Rubisco Activase derived polypeptide 184B2 (enzyme)
chain: B1 chain with R274T, K310N
B11: Rubisco Activase derived polypeptide 301C7 (enzyme)
chain: B1 chain with F168L, V257I, R274T, K310N

Columns and labels:
Test in all cases: cell-based or functional assay
[1] = target: T1, purified deactivated Arabidopsis Rubisco (Ribulose-1,5-bisphosphate carboxylase/oxygenase) (Arabidopsis, UniProt O03042 3-479; P10795 55-180)
[2] = target: T1, purified deactivated Arabidopsis …; remark: listed apart in the source
[3] = target: T1, purified deactivated Arabidopsis …; remark: listed apart in the source

| Binder | Activation of deactivated Rubisco assay, T.S 45° C./25° C. [1] [%] | Activation of deactivated Rubisco assay, T.S 45 min at 40° C./15 min at 25° C. [1] [%] | Rubisco activation under catalytic conditions assay, T.S 40° C./25° C. [1] [%] | Thermostability (%) [2] [%] | activation state of Rubisco at 40° C. relative to reactions at 25° C. [3] [%] |
| --- | --- | --- | --- | --- | --- |
| B1 | 52 | 54 | 77 | 82 | – |
| B2 | 86 | 85 | 93 | 90 | – |
| B3 | 92 | 88 | 97 | 103 | – |
| B4 | – | – | – | 84 | – |
| B5 | 63 | 66 | 82 | 88 | – |
| B6 | 89 | 75 | 78 | 89 | – |
| B7 | 50 | 32 | 67 | 66 | 70 |
| B8 | 58 | 65 | 74 | 92 | – |
| B9 | – | – | – | 97 | – |
| B10 | – | – | – | 84 | – |
| B11 | 84 | 92 | 83 | 98 | – |
